In PMC7900238, “A meet-up of two second messengers: the c-di-AMP receptor DarB controls (p)ppGpp synthesis in Bacillus subtilis” (Nature Communications, 2021):
One block for each molecule: values may come before it.

Legend:
[1] = biological target: DarB (Bacillus subtilis, UniProt O31698); test: biochemical
[2] = biological target: T1, Rel (Bacillus subtilis, UniProt O54408); test: hydrolase assay, GTP formation by LC-MS/MS; format: biochemical; settings: 1 mM pppGpp, 1 mM MnCl2, 5 mM Mg(OAc)2, HEPES:Polymix pH 7.5, 37 °C; without DarB
T1 construct: gene relA; full-length (734 residues), 10xHis-SUMO fusion from plasmid pVHP186 in E. coli Rosetta(DE3), SUMO tag cleaved, RNA-free
T1 sequence (O54408 whole entry, the tested form may be a part): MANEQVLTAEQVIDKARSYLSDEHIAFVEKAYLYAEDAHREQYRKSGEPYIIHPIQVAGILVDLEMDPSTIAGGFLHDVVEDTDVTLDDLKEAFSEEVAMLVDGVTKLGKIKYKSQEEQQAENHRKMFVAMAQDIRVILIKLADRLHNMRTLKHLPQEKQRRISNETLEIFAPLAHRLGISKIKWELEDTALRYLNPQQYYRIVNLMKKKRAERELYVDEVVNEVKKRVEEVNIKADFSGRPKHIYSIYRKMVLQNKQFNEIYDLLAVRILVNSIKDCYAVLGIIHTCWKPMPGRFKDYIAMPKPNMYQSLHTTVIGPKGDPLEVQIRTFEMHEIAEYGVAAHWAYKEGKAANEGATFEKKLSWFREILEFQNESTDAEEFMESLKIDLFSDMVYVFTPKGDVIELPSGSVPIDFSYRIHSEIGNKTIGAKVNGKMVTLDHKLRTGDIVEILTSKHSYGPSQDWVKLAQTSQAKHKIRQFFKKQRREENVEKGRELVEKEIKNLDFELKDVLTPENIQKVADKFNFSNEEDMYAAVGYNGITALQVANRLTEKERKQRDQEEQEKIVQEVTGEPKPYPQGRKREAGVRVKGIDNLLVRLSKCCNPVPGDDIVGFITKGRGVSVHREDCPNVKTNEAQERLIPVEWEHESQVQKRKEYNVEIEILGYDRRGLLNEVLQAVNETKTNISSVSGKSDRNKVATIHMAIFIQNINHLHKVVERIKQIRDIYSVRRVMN

[3] = biological target: T2, Rel^NTD, purified, as used in SEC-MALS and ITC (B. subtilis 168, UniProt O54408 1-391); test: ITC; 10 µM Rel^NTD in the cell, 100 µM DarB in the syringe, 50 mM Tris-HCl pH 8.3, 200 mM NaCl, 20 °C; settings: both partners purified
T2 construct: Rel, Bacillus subtilis 168, aa 1-391 (HYD and SYN domains); the only expression plasmid named is pGP3350 (Strep-tagged); The SEC-MALS methods speak of 'purified tag-free proteins', but no removal of the Strep tag from Rel^NTD is described; Monomer by SEC-MALS; source: E. coli Rosetta(DE3), purified (StrepTactin)
T2 sequence (O54408 1-391): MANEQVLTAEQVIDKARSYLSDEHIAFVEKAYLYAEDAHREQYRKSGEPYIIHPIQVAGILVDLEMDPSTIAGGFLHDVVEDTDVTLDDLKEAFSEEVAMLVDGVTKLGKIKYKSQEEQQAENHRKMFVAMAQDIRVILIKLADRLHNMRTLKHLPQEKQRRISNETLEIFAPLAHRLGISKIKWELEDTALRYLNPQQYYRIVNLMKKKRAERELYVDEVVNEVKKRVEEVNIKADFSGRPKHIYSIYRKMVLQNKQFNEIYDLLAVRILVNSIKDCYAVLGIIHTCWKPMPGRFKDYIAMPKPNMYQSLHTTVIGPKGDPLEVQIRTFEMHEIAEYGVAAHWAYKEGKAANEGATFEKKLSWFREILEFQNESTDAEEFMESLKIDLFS

[4] = biological target: Rel, full length, purified, SUMO tag removed (B. subtilis, UniProt O54408 1-734); test: cell-based or functional assay
Sequence of Rel, full length, purified, SUMO tag removed (O54408 whole entry): as the sequence (O54408 whole entry, the tested form may be a part) above

[5] = biological target: the molecule itself; test: SEC-MALS; Rel^NTD and DarB alone or pre-mixed 1:1 (~1 mg/ml each) in 1× ZAP buffer (50 mM Tris-HCl, 200 mM NaCl, pH 7.5), Superdex 200 10/300GL; fractions on SDS-PAGE

Sequence of DarB (O31698 whole entry): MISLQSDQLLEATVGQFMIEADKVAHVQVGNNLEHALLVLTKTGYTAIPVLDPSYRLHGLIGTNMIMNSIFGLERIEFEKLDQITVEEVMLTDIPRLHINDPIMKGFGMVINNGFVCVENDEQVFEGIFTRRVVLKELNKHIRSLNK

Kd [1]: ~45 nM
Molecule: Nc1ncnc2c1ncn2[C@@H]1O[C@@H]2COP(=O)(O)O[C@H]3[C@@H](O)[C@H](n4cnc5c(N)ncnc54)O[C@@H]3COP(=O)(O)O[C@H]2[C@H]1O [c-di-AMP]

Molecule: Nc1nc2c(ncn2[C@@H]2O[C@H](COP(=O)(O)OP(=O)(O)OP(=O)(O)O)[C@@H](OP(=O)(O)OP(=O)(O)O)[C@H]2O)c(=O)[nH]1 [pppGpp]
hydrolase assay, GTP formation by LC-MS/MS [2]: we determined the formation of GTP resulting from the hydrolysis of pppGpp

Kd [3]: 650 nM
stoichiometry N [3]: 1
pppGpp hydrolase activity of purified Rel (0.5 µM) with DarB (5 µM), against Rel alone (8.7 pmol of GTP per pmol of Rel per minute) [4]: 6 fold
pppGpp synthetase activity of purified Rel (0.5 µM) with DarB (5 µM), against Rel alone (1.1 pmol pppGpp per pmol of Rel per minute) [4]: 3 fold
B1: DarB, purified, SUMO tag removed (natural protein, B. subtilis 168)
chain: ISLQSDQLLEATVGQFMIEADKVAHVQVGNNLEHALLVLTKTGYTAIPVLDPSYRLHGLIGTNMIMNSIFGLERIEFEKLDQITVEEVMLTDIPRLHINDPIMKGFGMVINNGFVCVENDEQVFEGIFTRRVVLKELNKHIRSLNK
notes: darB amplified from chromosomal DNA and cloned into pET-SUMO (pGP2972); Dimer by SEC-MALS; Apo form as made in E. coli; in some experiments preincubated or saturated with c-di-AMP (written as a condition of the assay); also called apo-DarB; c-di-AMP receptor DarB; source: E. coli Rosetta(DE3), purified (Ni-NTA; SUMO tag removed with SUMO protease)
stoichiometry N [5]: 2
